Data as given in WO2008021263A2 (dated 2008).
Numbering of substitutions follows the chain as printed. Values belong to the binder of their own block, whether it stands above or below them.

Tests used:
dimeric form of SDF-1α [1] = biological target: T1, dimeric form of SDF-1α (Felis catus (Cat) (Felis silvestris …, UniProt O62657 22-89)); assay: SPR, both formats (SDF-1α on chip; Fab on anti-CH1 chip)
T1 construct: Same protein as m1; also called SDF-lα dimers; dimeric state of the SDF-1α antigen
T1 sequence (O62657 22-89 limits assumed): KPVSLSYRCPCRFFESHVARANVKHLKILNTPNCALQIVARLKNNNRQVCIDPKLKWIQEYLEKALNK

[2] = biological target: SDF-FITC (FITC-labelled SDF-1α) (Felis catus (Cat) (Felis silvestris …, UniProt O62657 22-89, FITC label, site not stated)); assay: fluorescence polarization time course with FITC-labelled SDF-1α (Figures 8A-8C)
Sequence of SDF-FITC (FITC-labelled SDF-1α) (Felis catus (Cat) (O62657 22-89 limits assumed): as above

dimeric form of SDF-1α [3] = biological target: T1, dimeric form of SDF-1α; assay: SPR, IgG immobilised on chip, SDF-1α flowed (Table VI, not shown)
[4] = biological target: T2, SDF-1α (stromal cell-derived factor-1 alpha) (Felis catus (Cat) (Felis silvestris …, UniProt O62657 22-89)); assay: SPR, SDF-1α with heparin in solution (Figure 7 legend: 1D3 IgG)
T2 construct: also called SDF-lα; SDF-I α
T2 sequence (O62657 22-89 limits assumed): as above

[5] = biological target: T2, SDF-1α (stromal cell-derived factor-1 …); assay: SPR, Fab captured on anti-CH1 chip, SDF-1α flowed (Table IV, not shown)
[6] = biological target: T2, SDF-1α (stromal cell-derived factor-1 …); assay: SPR, time course after dilution of SDF-1α in buffers HBS-EP, HBS-P and HBS-N

binding result (dimeric form of SDF-1α [1]): binds | binding result [5]: binds
B3: 1H2 Fab (Fab, V domains shown)
VH: QVQLVQSGAEVKKPGASVKVSCKVSGYTFTKLSVHWVRQAPGKGLEWMGSFDPEDGETIYSQRFQGRVTMTEDTSTDTAYMELSSLRSEDTAVYYCATEGQWLVAYYGMDVWGQGTMVTVSS
VL: EIVLTQSPSSLSASVGDRVTITCRASQGISSALAWYQQKPGKAPKLLIYDASSLESGVPSRFSGSGSGTDFTLTISSLQPEDFATYYCQQFNSYPLTFGGGTKVEIK
notes: Fab of the 1H2 human monoclonal antibody; the constant parts are not; also called B-type Fab

binding result [6]: binds | binding result [2]: binds | binding result (dimeric form of SDF-1α [3]): binds
B4: 1H2 IgG (antibody, V domains shown)
VH: B3 VH
VL: B3 VL
notes: Human monoclonal IgG; also called B-type IgG; B-type antibody

More lines, now with the values behind:

B1: 1D3 Fab (Fab, V domains shown)
VH: B3 VH with Q1E, F29L, S84T, M117T
VL: B3 VL
notes: Fab of the 1D3 human monoclonal antibody; the constant parts are not; also called B-type Fab
binding result (dimeric form of SDF-1α [1]): binds

B2: 1D3 IgG (antibody, V domains shown)
VH: B3 VH with Q1E, F29L, S84T, M117T
VL: B3 VL
notes: as for B4
binding result [2]: binds | binding result (dimeric form of SDF-1α [3]): binds | binding result [4]: binds
